In FireProtDB (doi:10.1371/journal.ppat.1004158):

Settings: Podospora anserina; pH 7.5; 25 °C; GdnHCl; optical density; whole UniProt chain shown

B1: Heterokaryon incompatibility protein s wild type, Q03689 (protein)
chain: MSEPFGIVAGALNVAGLFNNCVDCFEYVQLGRPFGRDYERCQLRLDIAKARLSRWGEAVKINDDPRFHSDAPTDKSVQLAKSIVEEILLLFESAQKTSKRYELVADQQDLVVFEDKDMKPIGRALHRRLNDLVSRRQKQTSLAKKTAWALYDGKSLEKIVDQVARFVDELEKAFPIEAVCHKLAEIEIEEVEDEASLTILKDAAGGIDAAMSDAAAQKIDAIVGRNSAKDIRTEERARVQLGNVVTAAALHGGIRISDQTTNSVETVVGKGESRVLIGNEYGGKGFWDN
With B1 the unfolding free energy was 2.9 kcal/mol.
